Test results taken from patent US20150126713A1.

How the values were obtained:
[1] = target: human IL-23R-mouse Fc fusion protein (human; mouse) (UniProt Q5VWK5); experiment: antigen ELISA, human IL-23R-mouse Fc immobilized, HRP anti-human IgG, chemiluminescence
[2] = target: monkey IL-23R-mouse Fc fusion protein (monkey; mouse); experiment: antigen ELISA, monkey IL-23R-mouse Fc immobilized, HRP anti-human IgG, chemiluminescence
[3] = target: human IL-23R on Kit-225 cells (human) (UniProt Q5VWK5); experiment: cell-based or functional assay
Chain of human IL-23R on Kit-225 cells (human) (Q5VWK5 24-629 L310P limits assumed): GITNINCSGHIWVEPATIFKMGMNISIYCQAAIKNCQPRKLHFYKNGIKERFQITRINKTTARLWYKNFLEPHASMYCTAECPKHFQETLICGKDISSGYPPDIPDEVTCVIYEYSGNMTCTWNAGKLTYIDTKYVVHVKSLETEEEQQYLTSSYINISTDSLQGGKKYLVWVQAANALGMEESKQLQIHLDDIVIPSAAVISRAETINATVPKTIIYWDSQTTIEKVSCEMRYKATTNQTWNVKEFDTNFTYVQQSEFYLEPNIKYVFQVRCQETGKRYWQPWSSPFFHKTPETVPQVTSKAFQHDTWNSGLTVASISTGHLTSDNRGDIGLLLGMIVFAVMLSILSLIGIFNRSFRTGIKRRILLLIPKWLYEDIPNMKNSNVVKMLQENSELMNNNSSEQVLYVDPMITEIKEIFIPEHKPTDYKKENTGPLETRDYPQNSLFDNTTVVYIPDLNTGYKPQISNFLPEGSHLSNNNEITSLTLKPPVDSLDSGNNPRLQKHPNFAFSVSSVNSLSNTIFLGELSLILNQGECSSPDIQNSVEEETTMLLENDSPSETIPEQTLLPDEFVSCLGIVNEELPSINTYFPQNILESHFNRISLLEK

Chain of human IL-23R-mouse Fc fusion protein (human; mouse) (Q5VWK5 24-353 L310P limits assumed): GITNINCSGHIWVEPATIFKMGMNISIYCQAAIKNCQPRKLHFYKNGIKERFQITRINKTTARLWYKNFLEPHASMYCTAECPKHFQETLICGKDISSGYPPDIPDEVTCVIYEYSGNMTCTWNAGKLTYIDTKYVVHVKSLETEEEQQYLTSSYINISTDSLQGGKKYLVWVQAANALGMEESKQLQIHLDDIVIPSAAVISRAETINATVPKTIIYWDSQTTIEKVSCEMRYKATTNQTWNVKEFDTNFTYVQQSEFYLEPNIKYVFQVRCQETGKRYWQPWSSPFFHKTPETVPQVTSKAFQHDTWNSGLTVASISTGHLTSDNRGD

- EC50 [1]: 0.0452 µg/mL
- EC50 [2]: > 10 µg/mL
- Human IL-23-inducible Kit-225 cell proliferation inhibitory activity, IC50 [3]: 0.0276 µg/mL
B1: hum20D7 (antibody, from another filing, V domains shown)
VH: QVQLVQSGAEVKKPGASVKVSCKASGYTFTNYAMNWVRQAPGQGLEWMGWINTYTGEPTYSDDFKGRVTFTLDTSTSTAYMELRSLRSDDTAVYYCARGGGYDEDYFDYWGQGTLVTVSS
VL: DIVMTQSPLSLPVTPGEPASISCKSSQSLFNTINQKTYLAWYLQKPGQSPQLLIYFASTRESGVPDRFSGSGSGTDFTLKISRVEAEDVGVYYCQQHYDTPWTFGQGTKVEIKR
